Data as given in patent US11752210B2, “Sensitizing composition using electromagnetic waves for thermal therapy of cancers, and cancer therapy using same” (JINIS CO., LTD., priority 2013, dated 2023).

Experiments:
[1] = system: cancer cell line NCI-H460; assay: In vitro temperature elevation in cancer cells cultured with transferrin, after electromagnetic waves (Test Example 4); format: cell-based; settings: for increase in temperature before and after electromagnetic waves: cancer cell line, cultured 4 hr, washed, 100 W for 3 min
Procedure: (§1) The temperature elevation by the metal ion-noncovalently bound apotransferrin was evaluated through in vitro cell testing. A cancer cell line […] Sciences) in which the transferrin receptor was over-expressed was cultured, and 0.1 ml of a cell suspension at a concentration of 1×10^3 cells/ml was aliquoted into a 96-well plate and cultured in a CO2 incubator at 37° C. for 12 hr. As a control, normal human cells, i.e. stromal cells, were cultured, and 0.1 ml thereof was aliquoted at a concentration of 3×10^3 cells/ml into a 96-well plate and cultured in a CO2 incubator at 37° C. for 12 hr. […] After completion of the culturing of transferrin and cells, each plate was washed with a DMEM medium, thus removing transferrin that was not introduced into the cells. Next, each plate was exposed to an energy dose of 100 W for 3 min using a radio-frequency hyperthermia system (EHY-2000, Oncothermia), and changes in the temperature were measured using a thermal imaging camera ([…], Korea Rental, Korea).

[2] = system: normal human cells, i.e. stromal cells; assay: In vitro temperature elevation in normal cells cultured with transferrin, after electromagnetic waves (Test Example 4); format: cell-based; settings: normal cell line; all concentrations (0 to 5 mg/ml); cultured 4 hr, washed; 100 W for 3 min
Procedure: as §1

[3] = In vivo accumulation of iron ion in normal and tumorous tissue after transferrin, ICP-MS (Test Example 6); parameters: species or system BALB/c athymic nude mice; concentration of iron ion (ICP-MS): unit not given here; settings: 16 mg/kg i.v., after 24 hr
Procedure: In order to evaluate the accumulation capacity of “metal ion-noncovalently bound apotransferrin” (transferrin) in tumorous tissue, the iron-bound transferrin aqueous solution was administered to the mice, after which the concentrations of the metal ions were measured in normal tissue and tumorous tissue. The iron ion-bound apotransferrin (transferrin) aqueous solution was prepared at 4 mg/ml, and 0.1 ml thereof was intravenously injected in a dose of 16 mg/kg. After 24 hr, each tissue was sampled in the same manner as in Test Example 5 and the concentration of the metal ion was measured through ICP-MS (Varian 800-MS, Palo Alto, US).

[4] = system: NCI-H460-luc2 tumor xenograft; assay: Temperature of normal and tumorous tissue of tumor xenograft mice on application of electromagnetic waves after sensitizer (Example 1, FIGS. 9 to 11); format: in vivo, BALB/c athymic nude mice; settings: i.v. iron sucrose 1 mg/kg or transferrin 20 mg/kg, 4 hr after administration, 100 W for 3 min
Procedure: To this end, a lung cancer cell line NCI-H460-luc2 (Califer Life Sciences) was cultured, and 5×10^6 cells were subcutaneously injected into 6 to 8-week-old female BALB/c athymic nude mice (Damul Science), and the mice were bred for about 10 days so as to grow tumorous tissue to a size of 100 mm^3 or more, yielding the tumor xenograft animal models for the evaluation of cancer treatment effects.
As the sensitizing composition for thermal therapy, iron sucrose was prepared in the same manner as in Test Example 1, and 0.1 ml of the iron sucrose aqueous solution having a concentration of 0.2 mg/ml was intravenously injected into the established tumor xenograft mice so as to reach a dose of 1 mg/kg.
As the sensitizing composition for thermal therapy, “iron ion-bound apotransferrin” (transferrin) was prepared in the same manner as in Test Example 3, and 0.1 ml of the transferrin aqueous solution having a concentration of 5 mg/ml was intravenously injected into the established tumor xenograft mice so as to reach a dose of 20 mg/kg.
As the control, saline was administered. 4 hr after administration, electromagnetic waves were applied in an energy dose of 100 W for 3 min using a radio-frequency hyperthermia system (EHY-2000, Oncothermia), and the temperatures of normal tissue and tumorous tissue were measured using a thermal imaging device (E60, Korea Rental, Korea).

[5] = system: NCI-H460-luc2 tumor xenograft; assay: Thermal cancer therapy with sensitizer, bioluminescence imaging of tumor size in the last week (Example 1, FIG. 12); format: in vivo, BALB/c athymic nude mice; settings: i.v. 1 mg/kg metal ion-bound material or 20 mg/kg transferrin, 100 W 10 min, three times per week, four weeks
Procedure: Next, the potential to treat cancer was evaluated using the metal ion-bound material as the sensitizer upon thermal therapy. A lung cancer cell line NCI-H460-luc2 ([…] Sciences) was cultured, and 5×10^6 cells were subcutaneously injected into 6 to 8-week-old female BALB/c athymic nude mice (Damul Science), and the mice were bred for about 10 days so as to grow tumorous tissue to a size of 100 mm^3 or more, yielding the tumor xenograft animal models for the evaluation of cancer treatment effects. […] After 4 hr, thermal treatment was performed three times per week for a total of four weeks using a radio-frequency hyperthermia system (EHY-2000, Oncothermia) with an energy dose of 100 W for 10 min. As such, a non-treated group and a saline-treated group were set as controls. In order to analyze the size of tumorous tissue in the last week, bioluminescence imaging was performed. For bioluminescence of a luciferase-expressing cancer cell line NCI-H460-luc2, D-luciferin (Xenogen, USA) was intraperitoneally injected at a concentration of 150 mg luciferin/kg/d into the mice, the mice were anesthetized through inhalation using a mixture of isoflurane gas and oxygen, and luminous cancer cells were subjected to overlap photographing using a Xenogen imager (IVIS 200), and analyzed using Igor Pro imaging analysis software.

[6] = system: NCI-H460-luc2 tumor xenograft; assay: Thermal cancer therapy with repeated sensitizer dosing, weekly bioluminescence imaging of tumor size over four weeks (Example 1, FIG. 13); format: in vivo, BALB/c athymic nude mice; settings: i.v. three times per week, 100 W 30 min or more
Procedure: After 4 hr, thermal treatment for 30 min or more using a radio-frequency hyperthermia system (EHY-2000, Oncothermia) with an energy dose of 100 W was performed for a total of four weeks, and the size of tumorous tissue was monitored every week. […] In the group to which transferrin was administered, 0.1 ml of the transferrin aqueous solution having a concentration of 5 mg/ml was intravenously injected. As such, the non-treated group and the saline-treated group were used as controls.
In order to analyze the size of tumorous tissue, bioluminescence imaging was regularly performed at an interval of one week, and analysis was performed using Igor Pro imaging analysis software.

Q: Which “selectivity of temperature elevation depending on concentration, cancer vs normal cell line” value ([1]; FIGS. 5 to 8) does the source give for “transferrin: iron ion-bound apotransferrin prepared by reacting ferric hydroxide solution with apotransferrin at 37° C. for 30 min” here?
A: more selective in the cancer cell line than in the normal cell line

Q: What about the “increase in temperature before and after electromagnetic waves” value ([1]; 1 mg/ml) of the same substance?
A: 11.9 °C

Q: And the “increase in temperature before and after electromagnetic waves” value ([1]; 5 mg/ml)?
A: 12.6 °C

Q: What about the “change in temperature before and after electromagnetic waves” value [2] of the same substance?
A: about 7 °C

Q: And the “Fold increase of iron ion vs saline” value ([3]; Brain)?
A: 1.26

Q: What about the “concentration of iron ion (ICP-MS)” value ([3]; Brain) of the same substance?
A: 28.4 ± 3.5

Q: What about the “Fold increase of iron ion vs saline” value ([3]; Heart) of the same substance?
A: 2.18

Q: And the “concentration of iron ion (ICP-MS)” value ([3]; Heart)?
A: 70.1 ± 12.3

Q: And the “Fold increase of iron ion vs saline” value ([3]; Kidney)?
A: 0.72

Q: And the “concentration of iron ion (ICP-MS)” value ([3]; Kidney)?
A: 41.2 ± 1.7

Q: And the “Fold increase of iron ion vs saline” value ([3]; Liver)?
A: 1.27

Q: And the “concentration of iron ion (ICP-MS)” value ([3]; Liver)?
A: 94.7 ± 8.1

Q: What about the “Fold increase of iron ion vs saline” value ([3]; Lung) of the same substance?
A: 1.55

Q: What about the “concentration of iron ion (ICP-MS)” value ([3]; Lung) of the same substance?
A: 43.9 ± 17.9

Q: And the “Fold increase of iron ion vs saline” value ([3]; Muscle)?
A: 0.87

Q: And the “concentration of iron ion (ICP-MS)” value ([3]; Muscle)?
A: 25.7 ± 5.2

Q: What about the “Fold increase of iron ion vs saline” value ([3]; Stomach) of the same substance?
A: 1.67

Q: And the “concentration of iron ion (ICP-MS)” value ([3]; Stomach)?
A: 46.4 ± 14.9

Q: What about the “concentration of iron ion (ICP-MS)” value ([3]; Tumor) of the same substance?
A: 43.9 ± 9.7

Q: What about the “Fold increase of iron ion vs saline” value ([3]; Tumor, 16 mg/kg) of the same substance?
A: ≥ 3.2

Q: And the “Fold increase of iron ion vs saline” value ([3]; Tumor, listed as Transferrin, 16 mg/kg)?
A: 3.25

Q: And the “changes in the temperature before and after the application of electromagnetic waves” value ([4]; normal tissue)?
A: 1 °C

Q: And the “changes in the temperature before and after the application of electromagnetic waves” value ([4]; tumorous tissue)?
A: 2 °C

Q: What about the “cancer treatment effects through thermal therapy (size of tumorous tissue, bioluminescence imaging)” value [5] of the same substance?
A: excellent

Q: And the “growth of cancer upon thermal treatment using electromagnetic waves (bioluminescence imaging)” value ([6]; 0.1 ml of 0.2 mg/ml (iron dextran, iron sucrose) or 5 mg/ml (transferrin), four weeks)?
A: remarkably inhibited

Q: And the “size of cancer after four weeks (bioluminescence imaging)” value ([6]; 0.1 ml of 5 mg/ml, after four weeks)?
A: disappeared completely
